The target in data set [1] is T1, mouse RANK extracellular domain (mouse, UniProt O35305 31-214).
T1 construct: RANK, mouse, extracellular domain (plasmid pET28a-mRANK); also called mRANK; mRANK ectodomain; source: plasmid pET28a-mRANK
T1 sequence (looked up): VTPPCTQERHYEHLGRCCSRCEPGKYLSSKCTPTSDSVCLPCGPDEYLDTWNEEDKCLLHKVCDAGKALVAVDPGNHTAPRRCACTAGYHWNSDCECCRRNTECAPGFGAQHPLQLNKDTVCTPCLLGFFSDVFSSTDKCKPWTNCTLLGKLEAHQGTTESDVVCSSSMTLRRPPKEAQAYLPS
The data set is described as follows: SPR; Biacore 3000; NTA sensor chip charged with 0.3 M NiSO4, mRANK (50 nM, 15 ul) loaded; hRANKL or mutants injected at 0, 0.47, 0.94, 1.88, 3.75, 7.5, 15 and 30 nM; BIAevaluation 4.1. Particulars: both partners purified.

Data set [2] concerns the target T2, human RANKL ectodomain (residues 158-317) Asp300Ala (human, UniProt O14788 158-317, Asp300Ala).
T2 sequence: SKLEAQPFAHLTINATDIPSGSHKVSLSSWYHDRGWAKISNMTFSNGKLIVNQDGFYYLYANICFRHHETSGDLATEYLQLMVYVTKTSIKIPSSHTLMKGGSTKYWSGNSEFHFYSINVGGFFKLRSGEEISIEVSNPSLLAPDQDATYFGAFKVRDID
Kind of data set: SPR.

The target in data set [3] is T3, human RANKL ectodomain (residues 158-317) Arg223Ala plus Asp300Ala (human, UniProt O14788 158-317, Arg223Ala | Asp300Ala).
T3 sequence: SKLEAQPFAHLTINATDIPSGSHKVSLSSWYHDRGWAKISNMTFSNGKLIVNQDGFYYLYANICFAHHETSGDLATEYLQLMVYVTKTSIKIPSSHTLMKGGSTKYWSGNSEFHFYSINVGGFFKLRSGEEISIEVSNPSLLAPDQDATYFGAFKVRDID
Kind of data set: SPR.

The target of data set [4] is T4, human RANKL ectodomain (residues 158-317) Arg223Ala (human, UniProt O14788 158-317, Arg223Ala).
T4 sequence: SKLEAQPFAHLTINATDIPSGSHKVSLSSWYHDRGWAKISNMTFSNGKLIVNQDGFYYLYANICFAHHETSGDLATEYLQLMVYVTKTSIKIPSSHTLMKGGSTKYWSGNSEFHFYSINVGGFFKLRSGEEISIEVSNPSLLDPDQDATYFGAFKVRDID
The data set is described as follows: SPR.

Data set [5] deals with the molecule itself. Kind of data set: crystal structure; hRANKL and mRANK mixed 1:1 in 0.1 M Tris pH 7.0, 10 mg/mL; sitting drop at 294 K, microseeded with crushed mRANKL-mRANK crystals; 2.8 Å, space group P63.
Data set [6] concerns the molecule itself. The data set is described as follows: cross-linking; DSS to protein 0:1, 5:1, 10:1 and 20:1, in PBS pH 7.3, on ice 1 hour, stopped with 50 mM Tris pH 7.5; SDS-PAGE.

Experimental findings from PMC4585926, “A RANKL mutant used as an inter-species vaccine for efficient immunotherapy of osteoporosis” (Scientific Reports, 2015) are described below.

B1: mouse RANKL (ligand)
chain: KPEAQPFAHLTINAASIPSGSHKVTLSSWYHDRGWAKISNMTLSNGKLRVNQDGFYYLYANICFRHHETSGSVPTDYLQLMVYVVKTSIKIPSSHNLMKGGSTKNWSGNSEFHFYSINVGGFFKLRAGEEISIQVSNPSLLDPDQDATYFGAFKVQDID
notes: RANKL, mouse; the text names the ectodomain in general as residues 161-316 of mRANKL; also called mRANKL
In data set [1], B1 gave a dissociation constant (Kd) of 0.068 nM.

B2: mouse RANK extracellular domain (receptor)
chain: VTPPCTQERHYEHLGRCCSRCEPGKYLSSKCTPTSDSVCLPCGPDEYLDTWNEEDKCLLHKVCDAGKALVAVDPGNHTAPRRCACTAGYHWNSDCECCRRNTECAPGFGAQHPLQLNKDTVCTPCLLGFFSDVFSSTDKCKPWTNCTLLGKLEAHQGTTESDVVCSSSMTLRRPPKEAQAYLPS
In the case of B2, the Kd in data set [2] was 2.15 nM; in data set [3] it was 39.4 nM; in data set [4], 10.7 nM.

B3: human RANKL ectodomain (residues 158-317), wild type (ligand, UniProt O14788 158-317, looked up)
chain: SKLEAQPFAHLTINATDIPSGSHKVSLSSWYHDRGWAKISNMTFSNGKLIVNQDGFYYLYANICFRHHETSGDLATEYLQLMVYVTKTSIKIPSSHTLMKGGSTKYWSGNSEFHFYSINVGGFFKLRSGEEISIEVSNPSLLDPDQDATYFGAFKVRDID
notes: RANKL, human, ectodomain, residues 158-317 (plasmid pGEX-6P-hRANKL); Homotrimer in the crystal structure; also called hRANKL; wild-type hRANKL; source: E. coli BL21, purified (glutathione-Sepharose, PreScission cleavage, Superdex 200); not shown: GST, N-terminal, cleaved
In data set [1], B3 showed a dissociation constant (Kd) of 0.156 nM. The “stoichiometry N” value in data set [5] is 3.

B4: human RANKL ectodomain (residues 158-317) Arg223Ala (ligand, UniProt O14788 158-317, looked up)
chain: SKLEAQPFAHLTINATDIPSGSHKVSLSSWYHDRGWAKISNMTFSNGKLIVNQDGFYYLYANICFAHHETSGDLATEYLQLMVYVTKTSIKIPSSHTLMKGGSTKYWSGNSEFHFYSINVGGFFKLRSGEEISIEVSNPSLLDPDQDATYFGAFKVRDID
notes: RANKL, human, ectodomain, residues 158-317, with Arg223Ala (mutant of pGEX-6P-hRANKL); source: E. coli BL21, purified (glutathione-Sepharose, PreScission cleavage, Superdex 200); not shown: GST, N-terminal, cleaved
Turning to B4, the “fold decrease in affinity against wild-type hRANKL” value (shortened to “fold decrease in affinity”) in data set [1] stood at 20 fold.

B5: human RANKL ectodomain (residues 158-317) Arg223Ala plus Asp300Ala (ligand, UniProt O14788 158-317, looked up)
chain: SKLEAQPFAHLTINATDIPSGSHKVSLSSWYHDRGWAKISNMTFSNGKLIVNQDGFYYLYANICFAHHETSGDLATEYLQLMVYVTKTSIKIPSSHTLMKGGSTKYWSGNSEFHFYSINVGGFFKLRSGEEISIEVSNPSLLAPDQDATYFGAFKVRDID
notes: RANKL, human, ectodomain, residues 158-317, with Arg223Ala and Asp300Ala (mutant of pGEX-6P-hRANKL); Trimeric by chemical cross-linking; also called hRANKL double-site mutant; source: E. coli BL21, purified (glutathione-Sepharose, PreScission cleavage, Superdex 200); not shown: GST, N-terminal, cleaved
With B5, in data set [1], the “fold decrease in affinity” value was determined as 260 fold. In addition, in data set [6], the “stoichiometry N” value was found to be 3.

B6: human RANKL ectodomain (residues 158-317) Asp300Ala (ligand, UniProt O14788 158-317, looked up)
chain: SKLEAQPFAHLTINATDIPSGSHKVSLSSWYHDRGWAKISNMTFSNGKLIVNQDGFYYLYANICFRHHETSGDLATEYLQLMVYVTKTSIKIPSSHTLMKGGSTKYWSGNSEFHFYSINVGGFFKLRSGEEISIEVSNPSLLAPDQDATYFGAFKVRDID
notes: RANKL, human, ectodomain, residues 158-317, with Asp300Ala (mutant of pGEX-6P-hRANKL); also called 300 M; source: E. coli BL21, purified (glutathione-Sepharose, PreScission cleavage, Superdex 200); not shown: GST, N-terminal, cleaved
In the case of B6, the “fold decrease in affinity” value in data set [1] is 70 fold.
